Data from patent publication US20240376205A1 (Hoffmann-La Roche, published 2024).

B1: Dutaflip Fab fragment of P1AH1111 (DutaFab E06P07) (Fab, V domains shown)
VH: ARQLVESGGGLVQPGGSLRLSCAASGFHFEEQAMSWVRQAPGKGLEWVGSISPKGGSKSLNRNFNGRFTISRDNSKNTLYLQMNSLRAEDTAVYYCAKDIGFMDGWGQGTLVTVSS
VL: YQMTQSPSSLSASVGDRVTITCHGHVFISNYLAWYQQKPGKAPKLLIYDGEWRDFGVPSRFSGSGSDDSFTLTISSLQPEDFATYYCQQYSNWPHTFGQGTKVEIK
notes: Fab fragment without IFN-α2 fusion, expressed in E. coli
B2: anti-huPD-L1 M14 Fab (P1AI3438) (Fab, V domains shown)
VH: MTQLVESGGGLVQPGGSLRLSCAADHTTEYNAMSWVRQAPGKGLEWVSAISGSGGSTYYADSVKGRFTISRDNSKNTLYLQMNSLRAEDTAVYYCARDLGFMDVWGQGTLVTVSS
VL: DIQMTQSPSSLSASVGDRVTITCRASQSISSYLNWYQQKPGKAPKLLIYDASYHEFGVPSRFSGSGSGTDFTLTISSLQPEDFATYYCQQSYSTPWTFGQGTKVEIK
notes: Tested as Fab fragment
B3: Dutaflip Fab fragment of P1AH1108 (Fab, V domains shown)
VH: MSQLVESGGGLVQPGGSLRLSCAANNDIEFNAMSWVRQAPGKGLEWVGSISPKGGSKSIHRKFQGRFTISRDNSKNTLYLQMNSLRAEDTAVYYCARDLGFMDIWGQGTLVTVSS
VL: KTQMTQSPSSLSASVGDRVTITCDGTYGISNELAWYQQKPGKAPKLLIYDGEYHDFDVPSRFSGSGSGSDFTLTISSLQPEDFATYYCQQYGNWPHTFGQGTKVEIK
notes: Dutaflip Fab fragment without IFN-α2 fusion, expressed in E. coli

Tests used:
[1] = biological target: T1, OneArmed-huPD-L1_ECD_Fc_LALAPG (P1AF6937) (human, UniProt Q9NZQ7 18-238); test: SPR, Dutaflip Fab fragment without IFN-α2 fusion, analyte P1AF6937
T1 construct: range 18-238; also called huPD-L1-Fc; huPD-L1(ECD)-huFc

[2] = biological target: T1, OneArmed-huPD-L1_ECD_Fc_LALAPG …; test: SPR, Fab fragment, as in Example 2 a)
[3] = biological target: T2, OneArmed-cyPD-L1_ECD_Fc_LALAPG_avi_his (P1AF6938) (cynomolgus); test: SPR, Fab fragment, as in Example 2 a)
T2 construct: also called cynomolgus PD-L1-Fc; cynoPD-L1 (ECD)-huFc

Row | Binder | Kd [1] [nM] | Kd [2] [nM] | koff [2] [s⁻¹] | kon [2] [M⁻¹ s⁻¹] | Kd [3] [nM] | koff [3] [s⁻¹] | kon [3] [M⁻¹ s⁻¹]
1 | B1 | 37 | – | – | – | – | – | –
2 | B2 | – | 0.6 | 0.00012 | 200000 | 0.9 | 0.00015 | 160000
3 | B3 | 6 | – | – | – | – | – | –
